Molecular target: the molecule itself
Assay: crystal structure

B1: Streptococcus pneumoniae pyruvate kinase (enzyme)
chain: MNKRVKIVATLGPAVEIRGGKKFGEDGYWGEKLDVEASAKNIAKLIEAGANTFRFNFSHGDHQEQGERMATVKLAEKIAGKKVGFLLDTKGPEIRTELFEGEAKEYSYKTGEKIRVATKQGIKSTREVIALNVAGALDIYDDVEVGRQVLVDDGKLGLRVVAKDDATREFEVEVENDGIIAKQKGVNIPNTKIPFPALAERDNDDIRFGLEQGINFIAISFVRTAKDVNEVRAICEETGNGHVQLFAKIENQQGIDNLDEIIEAADGIMIARGDMGIEVPFEMVPVYQKMIIKKVNAAGKVVITATNMLETMTEKPRATRSEVSDVFNAVIDGTDATMLSGESANGKYPLESVTTMATIDKNAQALLNEYGRLDSDSFERNSKTEVMASAVKDATSSMDIKLVVTLTKTGHTARLISKYRPNADILALTFDELTERGLMLNWGVIPMLTDAPSSTDDMFEIAERKAVEAGLVESGDDIVIVAGVPVGEAVRTNTMRIRTVR
With B1 the “stoichiometry N” value was 4.

Reference: article doi:10.1101/2024.06.25.600556 (bioRxiv, 2024)
